The text below walks through data of patent publication US20150329597A1.

A word on the Kd: it is the equilibrium constant for the complex coming apart. Read a high Kd as a looser complex. In general, koff refers to the rate constant with which the complex falls apart. A higher koff goes with fast dissociation. What is called kon is the rate constant with which the complex forms. Lower therefore signals slow association.

Test [1] has as its target RSV F monomer (uncleaved RSV F Delp23 Furdel; Delp23 Furdel Truncated HIS construct) (respiratory syncytial virus). Description: SPR (BIAcore), D25 Fab immobilised on CM5 chip, F monomer as analyte, 1:1 fit.
For test [2] the target is unchanged. Description: analytical HPLC-SEC of F monomer with 1:1 molar D25 Fab; monomer alone ~11.5 min.
Test [3] has the same target. Description: preparatory SEC of F monomer with D25 Fab at 1:1 molar ratio; monomer alone ~1.4 mls.
Test [4] concerns the target RSV F trimerized-monomer: RSV Monomer (Delp23 Furdel) + HRA peptide (respiratory syncytial virus). The test is described as follows: preparatory SEC of the trimerized F fraction with about 10-fold excess D25 Fab; trimerized monomer alone ~1.2 mls.

In test [1], “D25 Fab harboring a HIS-tag and Strep-tag” showed a Kd of 0.053 nM, a koff of 9.9e-06 s⁻¹ and an association rate constant (kon) of 190000 M⁻¹ s⁻¹. Also, the Retention Time Wyatt SEC WTC-030S5 (mixture) in test [2] amounted to 10.3 min. Besides, the Retention Volume Micro-Superdex 200 (mixture) in test [3] turned out to be 1.3 mls. Also, the Retention Volume Micro-Superdex 200 (mixture) in test [4] is 1.1 mls.
